Two molecules from patent US20240400657A1 (MorphoSys, published 2024) can be followed below.

Assay [1] addresses T1, engineered version of human C5aR expressed on CHO cells of the PathHunter β-arrestin assay (DiscoveRx) (human, UniProt P21730 1-350).
T1 sequence (looked up): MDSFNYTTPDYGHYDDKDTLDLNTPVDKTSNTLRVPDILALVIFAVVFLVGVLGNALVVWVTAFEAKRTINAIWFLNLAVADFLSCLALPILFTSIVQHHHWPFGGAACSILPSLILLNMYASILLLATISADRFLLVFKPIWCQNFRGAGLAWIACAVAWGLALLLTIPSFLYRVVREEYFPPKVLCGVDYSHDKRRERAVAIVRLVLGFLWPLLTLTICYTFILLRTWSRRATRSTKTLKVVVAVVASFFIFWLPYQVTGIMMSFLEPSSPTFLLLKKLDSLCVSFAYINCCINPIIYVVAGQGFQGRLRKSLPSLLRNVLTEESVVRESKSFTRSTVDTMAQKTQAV
The experiment in a line: cell-based or functional assay.

For assay [2], the target named is T2, C5aR expressed on purified human neutrophils (human, UniProt P21730 1-350).
T2 sequence (looked up): T1 sequence (looked up)
Briefly: cell-based or functional assay.

Assay [3] has as its target T1, engineered version of human C5aR …. Briefly: cell-based or functional assay. The source holds these as a separate data set.
Assay [4] has as its target T2, C5aR expressed on purified human …. Briefly: FACS on purified human neutrophils, IgG titration.
Method: (§1) Neutrophils were purified from EDTA-whole blood samples using a MACSexpress® Neutrophil Isolation Cocktail from Miltenyi Biotec. Briefly, using this kit, cells are isolated using magnetic labeling and negative magnetic separation. […] Measurements were done at the FACS Array device. FACS data were evaluated using FlowJo™, entered into GraphPad® Prism (v4.0) and fitted to the sigmoidal dose-response curve using non-linear regression to calculate the EC50.
For assay [5] the target is unchanged. Briefly: cell-based or functional assay. The source holds these as a separate data set.
Assay [6] addresses T3, C5aR expressed on purified cynomolgus neutrophils (cynomolgus monkey (Macaca fascicularis)).
T3 construct: Endogenous receptor on neutrophils from whole blood of three animals; also called cynomolgus C5aR expressed endogenously
T3 chain: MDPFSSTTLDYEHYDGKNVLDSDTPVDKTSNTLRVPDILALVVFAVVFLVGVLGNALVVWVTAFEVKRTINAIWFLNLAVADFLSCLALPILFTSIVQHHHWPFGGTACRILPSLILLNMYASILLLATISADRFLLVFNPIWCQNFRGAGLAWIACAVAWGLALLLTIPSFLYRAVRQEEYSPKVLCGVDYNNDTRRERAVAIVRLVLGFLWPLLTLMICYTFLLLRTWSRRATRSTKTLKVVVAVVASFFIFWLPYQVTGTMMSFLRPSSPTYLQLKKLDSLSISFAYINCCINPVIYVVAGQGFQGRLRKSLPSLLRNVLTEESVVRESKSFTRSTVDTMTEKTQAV
The experiment in a line: FACS, purified cynomolgus neutrophils, IgG titration. (In flow cytometry, cells or beads pass a laser one at a time.)
Method: as §1

Assay [7] addresses T4, full length cynomolgus C5aR stably expressed on CHO Flp-In cells (cynomolgus monkey (Macaca fascicularis)).
T4 chain: T3 chain
Briefly: FACS, CHO Flp-In cells expressing cynomolgus C5aR, single IgG concentration.
Method: (§2) The C5aR-CHO Flp-In™ cell lines were blocked and IgGs were added either in serial dilutions or at a single (high) concentration of 300 nM. For detection of IgG binding, an R-phycoerythrin (R-PE) conjugated anti-human IgG (Fc-gamma fragment specific)2 antibody was added and fluorescence was measured using the FACS Array or Novocyte device.

For assay [8], the target named is T5, full length human C5aR stably expressed on CHO Flp-In cells (human, UniProt P21730 1-350).
T5 construct: also called human C5aR expressed on CHO cells
T5 sequence: T1 sequence (looked up)
The experiment in a line: FACS on Flp-In CHO cells, IgG titration.
Method: as §2

B1: Human C5a (ligand)
chain: TLQKKIEEIAAKYKHSVVKKCCYDGACVNNDETCEQRAARISLGPRCIKAFTECCVVASQLRANISHKDMQLGR
For B1, in assay [1], the “Activity of human C5a EC50 (nM) in absence of anti-C5aR antibody, β-arrestin recruitment (PathHunter)” value is 2.9 nM.

B2: RefMAB #1 (antibody, human IgG1, kappa, V domains shown)
VH: EVQLVESGGGLVQPGGSLRLSCAASGFTFSSYVMHWVRQATGKGLEWVSAIDTGGGTYYADSVKGRFTISRENAKNSLYLQMNSLRAGDTAVYYCARDYYYYASGSYYKAFDIWGQGTMVTVSS
VL: EIVLTQSPGTLSLSPGERATLSCRASQSVSSRYLAWYQQKPGQAPRLLIYGASSRATGIPDRFSGSGSGTDFTLTISRLEPEDFAVYYCQQYGSPLTFGQGTKLEIKR
notes: also called IPH5401; NNC0215-0384
In the case of B2, in assay [2], the “IgG concentration for 50% inhibition of CD11b upregulation, granulocytes, 15 nM human C5a” value was 12 nM and the “IgG concentration for 50% inhibition of CD11b upregulation, granulocytes, 150 nM human C5a” value was 291 nM. For the same molecule, in assay [1], the “Activity of human C5a EC50 (nM) in presence of 50 nM anti-C5aR antibody, β-arrestin recruitment” value is 10 nM. For the same molecule, in assay [3], the “[%] inhibition at 1.2 nM C5a and 50 nM IgG, β-arrestin recruitment” value came out at 84.2%; the “[%] inhibition at 11 nM C5a and 50 nM IgG, β-arrestin recruitment” value turned out to be 38.9%; the “[%] inhibition at 100 nM C5a and 50 nM IgG, β-arrestin recruitment” value is 6.4%. It took 3.1 nM to reach a half-maximal effect in assay [4] (EC50). In assay [5], the “CD11b assay, granulocytes, 15 nM C5a, 20 minutes of IgG incubation: IC50” value was determined as 10.2 nM; the “CD11b assay, granulocytes, 15 nM C5a, 300 minutes of IgG incubation: IC50” value came out at 6.5 nM; the “CD11b assay, monocytes, 15 nM C5a, 20 minutes of IgG incubation: IC50” value turned out to be 1.8 nM; the “CD11b assay, monocytes, 15 nM C5a, 300 minutes of IgG incubation: IC50” value amounted to 5.3 nM. The binding result in assay [6] was “no binding (tested: ~250 nM)”. The binding result in assay [7] is on record as “no binding (tested: 300 nM)”. For the same molecule, the EC50 (in general, the concentration giving half of the maximal effect) in assay [8] is 1.1 nM.
